Experimental data from paper PMC9705314, “Characterization of a new potent and long-lasting single chain peptide agonist of RXFP1 in cells and in vivo translational models” (Scientific Reports, 2022).

Legend:
rat RXFP1 (rat) = rat RXFP1 (rat) (UniProt Q6R6I6)
human RXFP1 (human) = human RXFP1 (human) (UniProt Q9HBX9)
Sequence of human RXFP1 (human) (Q9HBX9 whole entry): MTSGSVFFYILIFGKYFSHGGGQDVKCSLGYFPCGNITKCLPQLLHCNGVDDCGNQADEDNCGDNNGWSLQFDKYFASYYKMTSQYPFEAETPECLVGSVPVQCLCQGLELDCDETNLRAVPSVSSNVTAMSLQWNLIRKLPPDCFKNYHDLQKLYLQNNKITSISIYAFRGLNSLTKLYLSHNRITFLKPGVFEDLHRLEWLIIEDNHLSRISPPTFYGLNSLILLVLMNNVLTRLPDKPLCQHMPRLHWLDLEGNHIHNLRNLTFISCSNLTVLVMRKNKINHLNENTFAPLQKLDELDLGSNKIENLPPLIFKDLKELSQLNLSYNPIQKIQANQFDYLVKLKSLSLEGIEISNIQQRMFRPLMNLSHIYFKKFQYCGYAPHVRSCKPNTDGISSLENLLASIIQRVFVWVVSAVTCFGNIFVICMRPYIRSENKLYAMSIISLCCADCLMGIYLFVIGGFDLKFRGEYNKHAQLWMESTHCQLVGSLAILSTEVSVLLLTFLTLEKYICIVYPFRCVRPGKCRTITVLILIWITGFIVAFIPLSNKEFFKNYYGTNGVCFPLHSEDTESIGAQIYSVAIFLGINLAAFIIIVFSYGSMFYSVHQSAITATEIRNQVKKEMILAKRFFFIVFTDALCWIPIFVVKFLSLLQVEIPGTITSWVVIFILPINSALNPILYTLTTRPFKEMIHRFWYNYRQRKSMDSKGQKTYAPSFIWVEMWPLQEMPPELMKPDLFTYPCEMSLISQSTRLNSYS

Sequence of rat RXFP1 (rat) (Q6R6I6 whole entry): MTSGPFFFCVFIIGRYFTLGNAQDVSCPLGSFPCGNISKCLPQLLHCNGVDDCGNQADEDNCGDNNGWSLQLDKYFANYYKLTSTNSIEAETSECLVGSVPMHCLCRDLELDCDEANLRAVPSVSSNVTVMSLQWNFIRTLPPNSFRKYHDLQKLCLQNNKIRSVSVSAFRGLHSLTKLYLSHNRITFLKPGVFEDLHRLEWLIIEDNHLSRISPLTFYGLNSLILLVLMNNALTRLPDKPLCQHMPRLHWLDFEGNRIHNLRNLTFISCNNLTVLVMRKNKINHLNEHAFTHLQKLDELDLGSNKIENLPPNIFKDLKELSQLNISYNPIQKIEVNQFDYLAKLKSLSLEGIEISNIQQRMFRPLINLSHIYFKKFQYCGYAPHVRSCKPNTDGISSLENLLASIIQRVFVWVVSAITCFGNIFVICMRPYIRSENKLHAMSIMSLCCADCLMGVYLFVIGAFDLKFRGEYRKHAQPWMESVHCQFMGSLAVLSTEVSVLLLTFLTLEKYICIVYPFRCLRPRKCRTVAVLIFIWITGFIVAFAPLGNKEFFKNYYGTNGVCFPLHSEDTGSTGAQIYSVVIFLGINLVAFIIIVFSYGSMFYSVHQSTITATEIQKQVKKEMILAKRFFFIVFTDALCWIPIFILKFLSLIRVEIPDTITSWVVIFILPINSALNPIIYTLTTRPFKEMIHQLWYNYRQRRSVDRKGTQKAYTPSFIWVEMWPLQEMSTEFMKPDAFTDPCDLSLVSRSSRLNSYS

cAMP (HTRF) in HEK ratRXFP1 cells, EC50 (rat RXFP1 (rat)): 1.4 nM
cAMP (HTRF) in HEK ratRXFP1 cells, Emax (% of the 100 nM relaxin response) (rat RXFP1 (rat)): 95.6%
cAMP (HTRF) in EA.hy926 hRXFP1 cells, EC50 (human RXFP1 (human)): 0.06 nM
cAMP (HTRF) in EA.hy926 hRXFP1 cells, Emax (% of the 100 nM relaxin response) (human RXFP1 (human)): 100%
cAMP (HTRF) in OVCAR5 cells with endogenous human RXFP1, EC50 (human RXFP1 (human)): 1.8 nM
cAMP (HTRF) in OVCAR5 cells with endogenous human RXFP1, Emax (% of the 100 nM relaxin response) (human RXFP1 (human)): 96.2%
Substance: Human recombinant relaxin (B-29/A-24) (ligand)
